Measured values taken from patent US6514747B2 (UT-Battelle, LLC, priority 1993, dated 2003).

Legend:
3T3-L1 adipocytes = experiment: lipogenesis in 3T3-L1 adipocytes (FAS and SCD mRNA, FAS activity, triglyceride content); assay type: cell-based
human MC4-R = target: T1, human MC4-R (Homo sapiens, UniProt P32245); experiment: α-MSH activation of human MC4-R in transfected 293 cells (adenylyl cyclase); assay type: cell-based
T1 construct: expressed in transfected cells; host or cells: 293 cells

rat MC3-R = target: T2, rat MC3-R (Rattus norvegicus, UniProt P32244); experiment: α-MSH activation of rat MC3-R in transfected 293 cells (adenylyl cyclase); assay type: cell-based; details: agouti 0.7 nM
T2 construct: expressed in transfected cells; host or cells: 293 cells

human TSH-receptor = target: T3, human TSH-receptor (Homo sapiens, UniProt P16473); experiment: TSH-stimulated adenylyl cyclase in TSH-R-transfected 293 cells; assay type: cell-based; details: agouti 0.7 nM
T3 construct: expressed in transfected cells; host or cells: 293 (human embryonic kidney) cells
Protocol: (§1) 293 cells (5×10^5) and 293 cells expressing human TSH-R were preloaded with 5 μCi ^3H-adenine for 1.5 h at 37° C. in a 5% CO2 incubator.
(§2) Medium was aspirated and 2.5% perchloric acid containing 0.1 mM cAMP was used to stop the incubation. Adenylyl cyclase activity was calculated by determining the percent conversion of ^3H-adenine to ^3H-cAMP as described (Salomon, 1991; Johnson and Salomon, 1991). Correlation of cAMP accumulation measured in this assay with actual adenylyl cyclase activity is made under the assumption that isobutymethylxanthine effectively blocks cAMP degradation. Data represent means and standard deviations from triplicate data points.

human MSH-R = target: T4, human MSH-R (Homo sapiens, UniProt Q01726); experiment: activation of human MSH-R in 293 cells (adenylyl cyclase); assay type: cell-based; details: 0.7 nM agouti
T4 construct: expressed in transfected cells; host or cells: human embryonic kidney 293 cells (printed '292')

untransfected 293 cells = experiment: adenylyl cyclase assay in untransfected 293 cells; assay type: cell-based, human; details: agouti 0.7 nM
Protocol: as §1, §2

mouse MC5-R = target: T5, mouse MC5-R (Mus musculus, UniProt P41149); experiment: α-MSH activation of mouse MC5-R in transfected 293 cells (adenylyl cyclase); assay type: cell-based
T5 construct: expressed in transfected cells; host or cells: 293 cells

[1] = test system: A7r5 vascular smooth muscle cells; experiment: [Ca2+]i in A7r5 vascular smooth muscle cells (fura 2); assay type: cell-based; details: 400 s, n = 8
Protocol: The spontaneously fusing L6 skeletal muscle cells [American Type Culture Collection (ATCC), Bethesda, MD] were grown in 75-cm^2 flasks in Dulbecco's modified Eagle's medium with 10% glucose (DMEM) supplemented with 5% fetal bovine serum (FBS, vol/vol), 5% calf serum supplemented iron enriched (CS, vol/vol, and antibiotics (50 U penicillin/ml and 5 μg of streptomycin/ml). Cultures were maintained in continuous passages (<20) by trypsinization (0.05% trypsin) of semiconfluent nonfused cells. A7r5 vascular smooth muscle cells (ATCC) were grown in the same conditions as for L6 cells. 3T3-L1 cells (ATCC) were grown in 100-mm dishes in DMEM containing 10% FBS and antibiotics. For differentiation of fibroblasts into adipocytes, confluent cells were incubated in DMEM-FBS containing 0.5 mM 3-isobutyl-1-methylxanthine (IBMX; Sigma, St. Louis, Mo.) and 0.25 μM dexamethasone (Dex; Sigma) for 60 h. […]
[Ca^2+]i was measured in L6, A7r5, and HEK-293 cells (Zemel et al., 1995) as previously described and in 3T3-L1 cells as described by Klip and Ramlal (1987). […] [Ca^2+]i levels were then measured fluorometrically in suspensions using dual excitation (340 and 380 nm)-single emission (510 nm) fluorometry as previously described (Zemel et al., 1995). [Ca^2+]i was then calculated by the computer in the fluorometer with the equation of Grynkiewicz et al. (1985). […]

T5 sequence (P41149 whole entry): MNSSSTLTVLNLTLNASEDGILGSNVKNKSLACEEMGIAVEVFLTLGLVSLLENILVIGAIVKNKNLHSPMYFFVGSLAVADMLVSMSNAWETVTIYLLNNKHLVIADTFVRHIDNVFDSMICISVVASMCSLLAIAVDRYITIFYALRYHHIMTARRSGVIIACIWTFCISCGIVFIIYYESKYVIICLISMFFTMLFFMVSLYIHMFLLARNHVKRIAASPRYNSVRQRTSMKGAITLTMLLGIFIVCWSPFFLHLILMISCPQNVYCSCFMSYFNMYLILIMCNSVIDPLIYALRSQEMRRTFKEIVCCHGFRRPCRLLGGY
T3 sequence (P16473 21-764): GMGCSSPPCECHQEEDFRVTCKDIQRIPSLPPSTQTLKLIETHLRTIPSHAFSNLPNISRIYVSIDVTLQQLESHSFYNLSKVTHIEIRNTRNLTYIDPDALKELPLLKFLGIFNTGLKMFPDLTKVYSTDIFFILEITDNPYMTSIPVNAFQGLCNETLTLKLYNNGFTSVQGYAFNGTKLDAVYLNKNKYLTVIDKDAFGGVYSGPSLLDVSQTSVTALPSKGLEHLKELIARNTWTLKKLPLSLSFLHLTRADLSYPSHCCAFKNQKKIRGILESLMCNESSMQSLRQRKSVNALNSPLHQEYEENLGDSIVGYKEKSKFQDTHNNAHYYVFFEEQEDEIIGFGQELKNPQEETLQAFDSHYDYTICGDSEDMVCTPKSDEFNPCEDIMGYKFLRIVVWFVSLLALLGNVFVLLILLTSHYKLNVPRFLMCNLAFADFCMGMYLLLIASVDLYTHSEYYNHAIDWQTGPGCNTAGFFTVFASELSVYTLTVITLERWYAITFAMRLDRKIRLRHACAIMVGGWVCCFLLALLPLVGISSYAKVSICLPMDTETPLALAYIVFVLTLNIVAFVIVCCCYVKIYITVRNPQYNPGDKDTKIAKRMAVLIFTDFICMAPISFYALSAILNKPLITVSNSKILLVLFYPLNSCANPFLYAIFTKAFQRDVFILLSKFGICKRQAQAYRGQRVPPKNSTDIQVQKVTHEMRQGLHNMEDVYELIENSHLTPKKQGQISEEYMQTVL
T1 sequence (P32245 whole entry): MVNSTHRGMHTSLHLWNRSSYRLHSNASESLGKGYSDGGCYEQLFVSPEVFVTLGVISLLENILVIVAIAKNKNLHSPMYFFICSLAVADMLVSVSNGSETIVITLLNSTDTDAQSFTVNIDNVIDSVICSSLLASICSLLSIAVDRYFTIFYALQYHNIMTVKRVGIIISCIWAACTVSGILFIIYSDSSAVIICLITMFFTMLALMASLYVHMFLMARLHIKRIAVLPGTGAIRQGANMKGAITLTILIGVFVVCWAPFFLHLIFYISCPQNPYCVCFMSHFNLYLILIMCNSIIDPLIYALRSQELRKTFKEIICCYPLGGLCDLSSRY
T4 sequence (Q01726 whole entry): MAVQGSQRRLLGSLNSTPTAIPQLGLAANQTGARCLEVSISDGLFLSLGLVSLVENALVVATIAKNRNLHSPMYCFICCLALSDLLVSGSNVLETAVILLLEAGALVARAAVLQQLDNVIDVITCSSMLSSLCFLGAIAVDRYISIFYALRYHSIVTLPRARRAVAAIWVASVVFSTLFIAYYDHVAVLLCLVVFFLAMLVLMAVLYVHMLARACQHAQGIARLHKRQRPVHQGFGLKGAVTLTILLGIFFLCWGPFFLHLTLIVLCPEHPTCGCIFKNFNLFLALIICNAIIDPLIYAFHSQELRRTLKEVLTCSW
T2 sequence (P32244 whole entry): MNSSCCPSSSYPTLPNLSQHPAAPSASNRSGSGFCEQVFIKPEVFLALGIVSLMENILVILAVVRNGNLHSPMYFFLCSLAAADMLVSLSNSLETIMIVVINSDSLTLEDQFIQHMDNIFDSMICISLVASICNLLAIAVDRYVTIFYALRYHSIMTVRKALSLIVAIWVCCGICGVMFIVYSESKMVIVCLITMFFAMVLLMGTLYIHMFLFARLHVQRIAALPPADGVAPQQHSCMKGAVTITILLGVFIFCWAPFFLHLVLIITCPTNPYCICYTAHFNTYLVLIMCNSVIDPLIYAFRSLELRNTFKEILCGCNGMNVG

B1: agouti: recombinant mouse agouti protein (131 amino acids, SEQ ID NO:2) produced with the baculovirus expression system in T. ni cells (protein, listed as Mus musculus)
chain: MDVTRLLLATLVSFLCFFTVHSHLALEETLGDDRSLRSNSSMNSLDFSSVSIVALNKKSKKISRKEAEKRKRSSKKKASMKKVARPPPPSPCVATRDSCKPPAPACCDPCASCQCRFFGSACTCRVLNPNC
increase in FAS mRNA levels (3T3-L1 adipocytes; 48 h treatment): 1.5 fold | increase in SCD mRNA levels (3T3-L1 adipocytes; 48 h treatment): 4 fold | cellular triglyceride content (3T3-L1 adipocytes; agouti, 48 h): 0.104±0.008 mg triglycerides/mg protein | antagonism of α-MSH activation (human MC4-R): potent antagonist | antagonism of receptor activation (rat MC3-R): did not antagonize | effect on ability of TSH to bind its receptor and stimulate adenylyl cyclase (human TSH-receptor): no effect | inhibition of MSH-R activation (human MSH-R): No inhibition | effect on basal adenylyl cyclase levels (untransfected 293 cells): no effect | antagonism of receptor activation (mouse MC5-R; 100 nM agouti): unaffected | antagonism of receptor activation (mouse MC5-R; agouti 0.7 nM): did not antagonize | [Ca2+]i Increase over Baseline ([1]; 5 nM Agouti): 74 ± 6 nM | [Ca2+]i Increase over Baseline ([1]; 25 nM Agouti): 46 ± 9 nM
